B1: YLLPSVVLL (peptide)
peptide: YLLPSVVLL
B2: EAKRHLLQV (peptide)
peptide: EAKRHLLQV
B3: VLITGLPLI (peptide)
peptide: VLITGLPLI
B4: YKKLRTSSF (peptide)
peptide: YKKLRTSSF
B5: YLPPTDPRMSV (peptide)
peptide: YLPPTDPRMSV
B6: YQDSWFQQL (peptide)
peptide: YQDSWFQQL
B7: KLYGMPTDFGF (peptide)
peptide: KLYGMPTDFGF
B8: HAKEKLTAL (peptide)
peptide: HAKEKLTAL
B9: IFINLSPEF (peptide)
peptide: IFINLSPEF
B10: VIAPIISNF (peptide)
peptide: VIAPIISNF
B11: KYLSLSNSF (peptide)
peptide: KYLSLSNSF
B12: SFDSNLLSF (peptide)
peptide: SFDSNLLSF
B13: SYTKVEARL (peptide)
peptide: SYTKVEARL
B14: SQTGFVVLV (peptide)
peptide: SQTGFVVLV
B15: PYASLASELF (peptide)
peptide: PYASLASELF
B16: LPMLKVLNL (peptide)
peptide: LPMLKVLNL
B17: VFLNQIYTQL (peptide)
peptide: VFLNQIYTQL
B18: LPFLRENDL (peptide)
peptide: LPFLRENDL
B19: FQKLKLLSL (peptide)
peptide: FQKLKLLSL
B20: VMLNSNVLL (peptide)
peptide: VMLNSNVLL
B21: MYAKEFDLL (peptide)
peptide: MYAKEFDLL
B22: KYLSIPAVFF (peptide)
peptide: KYLSIPAVFF
B23: GLMTIVTSL (peptide)
peptide: GLMTIVTSL
B24: KLHEIYIQA (peptide)
peptide: KLHEIYIQA
B25: SYIEKVRFL (peptide)
peptide: SYIEKVRFL
B26: EPVKKSRL (peptide)
peptide: EPVKKSRL
B27: ELMPRVYTL (peptide)
peptide: ELMPRVYTL
B28: SLQDTKITL (peptide)
peptide: SLQDTKITL
B29: LSYNKYLQL (peptide)
peptide: LSYNKYLQL
B30: RLFGLFLNNV (peptide)
peptide: RLFGLFLNNV
B31: YVSSGEMMV (peptide)
peptide: YVSSGEMMV
B32: ALFPERITV (peptide)
peptide: ALFPERITV
B33: GLTGVIMTI (peptide)
peptide: GLTGVIMTI
B34: LLMTSLTES (peptide)
peptide: LLMTSLTES
B35: FLNQIYTQL (peptide)
peptide: FLNQIYTQL
B36: GLPDFVKEL (peptide)
peptide: GLPDFVKEL
B37: KMILKMVQL (peptide)
peptide: KMILKMVQL
B38: HIFLRTTL (peptide)
peptide: HIFLRTTL
B39: KIDDIWNLEV (peptide)
peptide: KIDDIWNLEV
B40: IYGPKYIHPSF (peptide)
peptide: IYGPKYIHPSF
B41: AAMSRYEL (peptide)
peptide: AAMSRYEL
B42: DLKYNALDL (peptide)
peptide: DLKYNALDL
B43: KMMALVAEL (peptide)
peptide: KMMALVAEL
B44: TFQDKTLNF (peptide)
peptide: TFQDKTLNF
B45: LLKAEPLAF (peptide)
peptide: LLKAEPLAF
B46: RQYLAINQI (peptide)
peptide: RQYLAINQI
B47: TYISKTIAL (peptide)
peptide: TYISKTIAL
B48: ALAAELNQL (peptide)
peptide: ALAAELNQL
B49: RLASRPLLL (peptide)
peptide: RLASRPLLL
B50: RLWQIQHHL (peptide)
peptide: RLWQIQHHL
B51: TYLTGRQF (peptide)
peptide: TYLTGRQF
B52: EYNNIQHLF (peptide)
peptide: EYNNIQHLF
B53: NPNLKTLL (peptide)
peptide: NPNLKTLL
B54: YVKERSKAM (peptide)
peptide: YVKERSKAM
B55: KLLDEVTYL (peptide)
peptide: KLLDEVTYL
B56: VYGDGHYLTF (peptide)
peptide: VYGDGHYLTF
B57: KYLSIPTVF (peptide)
peptide: KYLSIPTVF
B58: KYLSIPAVF (peptide)
peptide: KYLSIPAVF

Experiments:
HLA-A*02:01 = target: T1, HLA-A*02:01 (human); assay: UV-ligand exchange, anti-b2m ELISA; exchange yield grade (+ >10%, ++ >20%, +++ >50, ++++ >75%)
T1 construct: Peptide-receptive MHC monomer made by UV cleavage of a UV-sensitive peptide
Procedure, shortened: (§1)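 UV-exchange products diluted 100-fold, captured on streptavidin-coated wells, 1 h 37 °C; HRP anti-β2m 2 ug/ml, 1 h 37 °C; TMB, A450. Standards: refolded HLA-A*02:01/MLA-001, 15-500 ng/ml. Yield = β2m signal of stabilised MHC.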

[1] = target: T2, human recombinant HLA-B*08:01 (human); assay: pMHC dissociation at 37 C (b2m on heavy chain); mean half-life grade (+ >2 h, ++ >4 h, +++ >6 h, ++++ >10 h)
T2 construct: Expressed in E. coli and purified; Assay done by ImmunAware
Description: The peptide-MHC stability for HLA-B*08:01 peptides was performed by ImmunAware (Copenhagen, Denmark). The data were obtained using a proximity based, homogenous, real-time assay to measure the dissociation of peptides from HLA class I molecules. First human recombinant HLA-B*08:01 and b2m were expressed in E. coli and purified in a series of liquid chromatography based steps (Ferre et al., 2003; Ostergaard et al., 2001). Afterwards, the stability of a peptide-MHC complex (pMHC) can be determined by measuring the amount of b2m associated with the MHC heavy chain over time at 37° C. (Harndahl et al., 2012). The stability of each pMHC, expressed as the half life of b2m associated with the respective heavy chain, was calculated by fitting the data to a one-phase dissociation equation.

HLA-A*24:02 = target: T3, HLA-A*24:02 (human); assay: UV-ligand exchange, anti-b2m ELISA; exchange yield grade (+ >10%, ++ >20%, +++ >50, ++++ >75%)
T3 construct: Peptide-receptive MHC monomer made by UV cleavage of a UV-sensitive peptide
Procedure, shortened: as §1

Binder	peptide exchange yield (HLA-A*02:01) [%]	peptide exchange yield (HLA-A*24:02) [%]	further results
B1	> 75	–	–
B2	–	–	mean half-life (T1/2) of peptide-MHC complex [1]: 4 to 6 h
B3	> 75	–	–
B4	–	–	mean half-life (T1/2) of peptide-MHC complex [1]: 4 to 6 h
B5	> 75	–	–
B6	50 to 75	–	–
B7	–	20 to 50	–
B8	–	–	mean half-life (T1/2) of peptide-MHC complex [1]: 6 to 10 h
B9	–	> 75	–
B10	–	50 to 75	–
B11	–	> 75	–
B12	–	10 to 20	–
B13	–	50 to 75	–
B14	20 to 50	–	–
B15	–	> 75	–
B16	–	–	mean half-life (T1/2) of peptide-MHC complex [1]: 2 to 4 h
B17	–	20 to 50	–
B18	–	–	mean half-life (T1/2) of peptide-MHC complex [1]: 4 to 6 h
B19	–	–	mean half-life (T1/2) of peptide-MHC complex [1]: 2 to 4 h
B20	> 75	–	–

Binder	peptide exchange yield (HLA-A*02:01) [%]	peptide exchange yield (HLA-A*24:02) [%]	further results
B21	–	50 to 75	–
B22	–	> 75	–
B23	> 75	–	–
B24	> 75	–	–
B25	–	50 to 75	–
B26	–	–	mean half-life (T1/2) of peptide-MHC complex [1]: 6 to 10 h
B27	50 to 75	–	–
B28	50 to 75	–	–
B29	–	–	mean half-life (T1/2) of peptide-MHC complex [1]: 4 to 6 h
B30	> 75	–	–
B31	50 to 75	–	–
B32	> 75	–	–
B33	> 75	–	–
B34	50 to 75	–	–
B35	> 75	–	–
B36	> 75	–	–
B37	10 to 20	–	–
B38	–	–	mean half-life (T1/2) of peptide-MHC complex [1]: 4 to 6 h
B39	50 to 75	–	–
B40	–	> 75	–

Binder	peptide exchange yield (HLA-A*02:01) [%]	peptide exchange yield (HLA-A*24:02) [%]	further results
B41	–	–	mean half-life (T1/2) of peptide-MHC complex [1]: 4 to 6 h
B42	–	–	mean half-life (T1/2) of peptide-MHC complex [1]: 6 to 10 h
B43	> 75	–	–
B44	–	50 to 75	–
B45	–	–	mean half-life (T1/2) of peptide-MHC complex [1]: 4 to 6 h
B46	–	10 to 20	–
B47	–	50 to 75	–
B48	50 to 75	–	–
B49	50 to 75	–	–
B50	50 to 75	–	–
B51	–	20 to 50	–
B52	–	50 to 75	–
B53	–	–	mean half-life (T1/2) of peptide-MHC complex [1]: 4 to 6 h
B54	–	–	mean half-life (T1/2) of peptide-MHC complex [1]: 6 to 10 h
B55	50 to 75	–	–
B56	–	50 to 75	–
B57	–	> 75	–
B58	–	> 75	–

Source: patent US20180291082A1 (IMMATICS BIOTECHNOLOGIES, published 2018)
